T1: MPP6, Q9NZW5
T1 sequence (Q9NZW5 125-219, limits assumed, looked up): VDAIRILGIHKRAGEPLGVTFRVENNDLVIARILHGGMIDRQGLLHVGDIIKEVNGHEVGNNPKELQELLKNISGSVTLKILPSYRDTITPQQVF

T2: APBA1_1, Q02410
T2 sequence (Q02410 651-752, limits assumed, looked up): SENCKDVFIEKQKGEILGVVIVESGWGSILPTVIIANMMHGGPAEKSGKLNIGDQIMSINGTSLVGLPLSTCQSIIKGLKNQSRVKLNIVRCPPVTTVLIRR

T3: PARD3B_1, Q8TEW8
T3 sequence (Q8TEW8 196-299, limits assumed, looked up): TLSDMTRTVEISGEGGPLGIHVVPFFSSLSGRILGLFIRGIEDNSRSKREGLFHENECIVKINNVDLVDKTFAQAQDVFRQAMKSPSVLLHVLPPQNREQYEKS

T4: GRIP1_3, Q9Y3R0
T4 sequence (Q9Y3R0 247-346, limits assumed, looked up): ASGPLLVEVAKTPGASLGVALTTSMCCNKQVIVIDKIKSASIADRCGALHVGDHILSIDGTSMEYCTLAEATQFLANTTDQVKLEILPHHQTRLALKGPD

T5: APBA2_2, Q99767
T5 sequence (Q99767 654-744, limits assumed, looked up): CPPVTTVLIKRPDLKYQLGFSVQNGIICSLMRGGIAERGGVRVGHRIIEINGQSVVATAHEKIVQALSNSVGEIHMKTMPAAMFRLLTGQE

T6: GRIP1_2, Q9Y3R0
T6 sequence (Q9Y3R0 145-248, limits assumed, looked up): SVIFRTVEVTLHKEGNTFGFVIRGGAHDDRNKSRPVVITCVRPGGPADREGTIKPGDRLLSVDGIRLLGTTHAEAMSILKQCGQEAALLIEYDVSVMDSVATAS

T7: SHANK1, Q9Y566
T7 sequence (Q9Y566 658-767, limits assumed, looked up): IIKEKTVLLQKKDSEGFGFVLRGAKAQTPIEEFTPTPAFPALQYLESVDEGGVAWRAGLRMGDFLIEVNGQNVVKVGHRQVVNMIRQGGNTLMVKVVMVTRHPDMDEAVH

T8: ARHGEF11, O15085
T8 sequence (O15085 42-136, limits assumed, looked up): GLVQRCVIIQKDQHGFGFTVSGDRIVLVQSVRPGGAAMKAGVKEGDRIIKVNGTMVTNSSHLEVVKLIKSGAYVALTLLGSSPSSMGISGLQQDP

T9: DLG3_2, Q92796
T9 sequence (Q92796 221-321, limits assumed, looked up): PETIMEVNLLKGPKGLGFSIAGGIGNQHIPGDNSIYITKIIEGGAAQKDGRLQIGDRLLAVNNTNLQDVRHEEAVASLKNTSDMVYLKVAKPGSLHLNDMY

T10: HTRA3, P83110
T10 sequence (P83110 354-453, limits assumed, looked up): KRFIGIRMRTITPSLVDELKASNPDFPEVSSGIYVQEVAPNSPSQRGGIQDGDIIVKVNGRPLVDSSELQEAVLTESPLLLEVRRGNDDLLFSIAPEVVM

T11: DLG3_3, Q92796
T11 sequence (Q92796 374-475, limits assumed, looked up): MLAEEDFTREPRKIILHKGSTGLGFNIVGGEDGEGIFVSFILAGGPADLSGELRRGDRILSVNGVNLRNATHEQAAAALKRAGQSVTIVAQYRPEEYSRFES

T12: MPDZ_12, O75970
T12 sequence (O75970 1857-1958, limits assumed, looked up): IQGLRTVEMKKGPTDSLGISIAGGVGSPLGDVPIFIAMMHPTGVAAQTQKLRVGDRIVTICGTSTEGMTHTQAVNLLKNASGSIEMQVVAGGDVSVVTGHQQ

B1: YAP1, P46937 (peptide)
chain: LDKESFLTWL
B2: SCN4A, P35499 (peptide)
chain: VRPGVKESLV

These binders were tested against T1, MPP6, Q9NZW5 (assay: holdup assay). Settings: plain residues with an end cap or a label only (N-terminal biotin on a linker: ado-ado).
Set-up: key: below the threshold = too weak to quantify, mostly under pKd 3.1 to 4

Binder	pKd
B1	below the threshold
B2	3.67

The binders below were run against MAGI1_2, Q96QZ7 (assay: holdup assay). Settings: plain residues with an end cap or a label only (N-terminal biotin on a linker: ado-ado).
MAGI1_2, Q96QZ7, sequence (Q96QZ7 456-580): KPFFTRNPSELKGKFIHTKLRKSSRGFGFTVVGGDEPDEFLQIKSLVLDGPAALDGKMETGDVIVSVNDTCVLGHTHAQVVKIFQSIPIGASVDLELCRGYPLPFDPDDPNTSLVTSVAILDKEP
Set-up: key: below the threshold = too weak to quantify, mostly under pKd 3.1 to 4

Binder	pKd
B1	3.49
B2	4.6

These binders were tested against TJP1_2, Q07157 (assay: holdup assay). Settings: plain residues with an end cap or a label only (N-terminal biotin on a linker: ado-ado).
TJP1_2, Q07157, sequence (Q07157 181-274): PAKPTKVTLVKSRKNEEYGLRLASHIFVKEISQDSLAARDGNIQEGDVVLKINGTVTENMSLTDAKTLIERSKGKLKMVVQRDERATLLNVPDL
Set-up: key: below the threshold = too weak to quantify, mostly under pKd 3.1 to 4

Binder	pKd
B1	3.67
B2	below the threshold

Each binder was assayed against DLG5_1, Q8TDM6 (assay: holdup assay). Settings: plain residues with an end cap or a label only (N-terminal biotin on a linker: ado-ado).
DLG5_1, Q8TDM6, sequence (Q8TDM6 617-713): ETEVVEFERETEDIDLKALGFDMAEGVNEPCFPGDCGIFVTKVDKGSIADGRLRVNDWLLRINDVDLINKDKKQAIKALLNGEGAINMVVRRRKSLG
Set-up: key: below the threshold = too weak to quantify, mostly under pKd 3.1 to 4

Binder	pKd
B1	below the threshold
B2	below the threshold

What follows are binders tested against Inadl_1, Q8NI35 (assay: holdup assay). Settings: plain residues with an end cap or a label only (N-terminal biotin on a linker: ado-ado).
Inadl_1, Q8NI35, sequence (Q8NI35 113-229): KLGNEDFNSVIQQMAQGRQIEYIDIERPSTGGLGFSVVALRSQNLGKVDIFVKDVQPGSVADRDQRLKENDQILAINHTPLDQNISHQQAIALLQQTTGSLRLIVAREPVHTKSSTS
Set-up: key: below the threshold = too weak to quantify, mostly under pKd 3.1 to 4

Binder	pKd
B1	4.54
B2	below the threshold

These binders were tested against DLG2_3, Q15700 (assay: holdup assay). Settings: plain residues with an end cap or a label only (N-terminal biotin on a linker: ado-ado).
Set-up: key: below the threshold = too weak to quantify, mostly under pKd 3.1 to 4

Binder	pKd
B1	below the threshold
B2	4.27

These binders were tested against T2, APBA1_1, Q02410 (assay: holdup assay). Settings: plain residues with an end cap or a label only (N-terminal biotin on a linker: ado-ado).
Set-up: key: below the threshold = too weak to quantify, mostly under pKd 3.1 to 4

Binder	pKd
B1	4.06
B2	below the threshold

These binders were tested against Inadl_2, Q8NI35 (assay: holdup assay). Settings: plain residues with an end cap or a label only (N-terminal biotin on a linker: ado-ado).
Inadl_2, Q8NI35, sequence (Q8NI35 238-335): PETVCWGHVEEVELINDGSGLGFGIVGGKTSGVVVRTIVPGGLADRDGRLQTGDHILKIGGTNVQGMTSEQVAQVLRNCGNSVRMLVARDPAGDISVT
Set-up: key: below the threshold = too weak to quantify, mostly under pKd 3.1 to 4

Binder	pKd
B1	3.91
B2	below the threshold

The binders below were run against T3, PARD3B_1, Q8TEW8 (assay: holdup assay). Settings: plain residues with an end cap or a label only (N-terminal biotin on a linker: ado-ado).
Set-up: key: below the threshold = too weak to quantify, mostly under pKd 3.1 to 4

Binder	pKd
B1	4.44
B2	below the threshold

These binders were tested against T4, GRIP1_3, Q9Y3R0 (assay: holdup assay). Settings: plain residues with an end cap or a label only (N-terminal biotin on a linker: ado-ado).
Set-up: key: below the threshold = too weak to quantify, mostly under pKd 3.1 to 4

Binder	pKd
B1	below the threshold
B2	below the threshold

Each binder was assayed against T5, APBA2_2, Q99767 (assay: holdup assay). Settings: plain residues with an end cap or a label only (N-terminal biotin on a linker: ado-ado).
Set-up: key: below the threshold = too weak to quantify, mostly under pKd 3.1 to 4

Binder	pKd
B1	below the threshold
B2	below the threshold

The binders below were run against LAP2, Q96RT1 (assay: holdup assay). Settings: plain residues with an end cap or a label only (N-terminal biotin on a linker: ado-ado).
LAP2, Q96RT1, sequence (Q96RT1 other isoform, or with tags, fused parts or gaps): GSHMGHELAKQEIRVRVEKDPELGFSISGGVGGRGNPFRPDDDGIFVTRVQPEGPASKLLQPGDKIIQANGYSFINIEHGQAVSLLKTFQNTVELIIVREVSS
Set-up: key: below the threshold = too weak to quantify, mostly under pKd 3.1 to 4

Binder	pKd
B1	4.2
B2	3.99

These binders were tested against T6, GRIP1_2, Q9Y3R0 (assay: holdup assay). Settings: plain residues with an end cap or a label only (N-terminal biotin on a linker: ado-ado).
Set-up: key: below the threshold = too weak to quantify, mostly under pKd 3.1 to 4

Binder	pKd
B1	3.51
B2	below the threshold

These binders were tested against GRID2IP_2, A4D2P6 (assay: holdup assay). Settings: plain residues with an end cap or a label only (N-terminal biotin on a linker: ado-ado).
GRID2IP_2, A4D2P6, sequence (A4D2P6 272-370): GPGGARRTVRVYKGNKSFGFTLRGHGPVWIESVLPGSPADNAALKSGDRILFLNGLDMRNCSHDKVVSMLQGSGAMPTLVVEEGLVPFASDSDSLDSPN
Set-up: key: below the threshold = too weak to quantify, mostly under pKd 3.1 to 4

Binder	pKd
B1	4.52
B2	3.64

Each binder was assayed against GRASP, Q7Z6J2 (assay: holdup assay). Settings: plain residues with an end cap or a label only (N-terminal biotin on a linker: ado-ado).
GRASP, Q7Z6J2, sequence (Q7Z6J2 96-193): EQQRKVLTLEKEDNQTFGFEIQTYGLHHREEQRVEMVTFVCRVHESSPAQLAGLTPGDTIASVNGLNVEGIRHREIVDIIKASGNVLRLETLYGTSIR
Set-up: key: below the threshold = too weak to quantify, mostly under pKd 3.1 to 4

Binder	pKd
B1	5.31
B2	below the threshold

What follows are binders tested against GRIP2_4, Q9C0E4 (assay: holdup assay). Settings: plain residues with an end cap or a label only (N-terminal biotin on a linker: ado-ado).
GRIP2_4, Q9C0E4, sequence (Q9C0E4 446-548): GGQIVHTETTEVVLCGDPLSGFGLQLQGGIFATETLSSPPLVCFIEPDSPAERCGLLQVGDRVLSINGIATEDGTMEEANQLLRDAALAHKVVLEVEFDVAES
Set-up: key: below the threshold = too weak to quantify, mostly under pKd 3.1 to 4

Binder	pKd
B1	below the threshold
B2	below the threshold

Each binder was assayed against T7, SHANK1, Q9Y566 (assay: holdup assay). Settings: plain residues with an end cap or a label only (N-terminal biotin on a linker: ado-ado).
Set-up: key: below the threshold = too weak to quantify, mostly under pKd 3.1 to 4

Binder	pKd
B1	5.4
B2	below the threshold

These binders were tested against T8, ARHGEF11, O15085 (assay: holdup assay). Settings: plain residues with an end cap or a label only (N-terminal biotin on a linker: ado-ado).
Set-up: key: below the threshold = too weak to quantify, mostly under pKd 3.1 to 4

Binder	pKd
B1	5.32
B2	below the threshold

Each binder was assayed against GOPC, Q9HD26 (assay: holdup assay). Settings: plain residues with an end cap or a label only (N-terminal biotin on a linker: ado-ado).
Set-up: key: below the threshold = too weak to quantify, mostly under pKd 3.1 to 4

Binder	pKd
B1	3.87
B2	below the threshold

What follows are binders tested against T9, DLG3_2, Q92796 (assay: holdup assay). Settings: plain residues with an end cap or a label only (N-terminal biotin on a linker: ado-ado).
Set-up: key: below the threshold = too weak to quantify, mostly under pKd 3.1 to 4

Binder	pKd
B1	below the threshold
B2	5

What follows are binders tested against T10, HTRA3, P83110 (assay: holdup assay). Settings: plain residues with an end cap or a label only (N-terminal biotin on a linker: ado-ado).
Set-up: key: below the threshold = too weak to quantify, mostly under pKd 3.1 to 4

Binder	pKd
B1	5.5
B2	below the threshold

Each binder was assayed against SCRIB_2, Q14160 (assay: holdup assay). Settings: plain residues with an end cap or a label only (N-terminal biotin on a linker: ado-ado).
SCRIB_2, Q14160, sequence (Q14160 857-960): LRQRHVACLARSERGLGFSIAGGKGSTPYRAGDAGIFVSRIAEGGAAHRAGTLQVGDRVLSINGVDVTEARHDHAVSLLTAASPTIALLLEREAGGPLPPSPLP
Set-up: key: below the threshold = too weak to quantify, mostly under pKd 3.1 to 4

Binder	pKd
B1	below the threshold
B2	4.18

The binders below were run against T11, DLG3_3, Q92796 (assay: holdup assay). Settings: plain residues with an end cap or a label only (N-terminal biotin on a linker: ado-ado).
Set-up: key: below the threshold = too weak to quantify, mostly under pKd 3.1 to 4

Binder	pKd
B1	below the threshold
B2	4.1

What follows are binders tested against T12, MPDZ_12, O75970 (assay: holdup assay). Settings: plain residues with an end cap or a label only (N-terminal biotin on a linker: ado-ado).
Set-up: key: below the threshold = too weak to quantify, mostly under pKd 3.1 to 4

Binder	pKd
B1	4.98
B2	below the threshold

Reference: PMC9482650, “Quantitative fragmentomics allow affinity mapping of interactomes” (Nature Communications, 2022)
